PMC10702828

Assays:
[1] = molecular target: Ipi3 (Chaetomium thermophilum (endogenous in mycelium)); experiment: cryo-EM structure; pre-60S particles from the Flag eluates of PT-Rsa4 E117D with Nop7-Flag, Rix1-Flag or Flag-Las1
[2] = molecular target: Ipi3 (Chaetomium thermophilum (endogenous in mycelium)); experiment: cryo-EM structure; isolated rixosome from the PTF-Las1 eluate; Rix1 complex and Las1-Grc3 processed individually, whole rixosome at low resolution
[3] = molecular target: polynucleotide kinase Grc3 (Chaetomium thermophilum (endogenous in mycelium)); experiment: as above
[4] = molecular target: wild‐type ct PTF‐Las1 (Chaetomium thermophilum); experiment: as above
[5] = molecular target: Rix1 (Chaetomium thermophilum (endogenous in mycelium)); experiment: cryo-EM structure; pre-60S particles from the Flag eluates of PT-Rsa4 E117D with Nop7-Flag, Rix1-Flag or Flag-Las1
[6] = molecular target: Rix1 (Chaetomium thermophilum (endogenous in mycelium)); experiment: cryo-EM structure; isolated rixosome from the PTF-Las1 eluate; Rix1 complex and Las1-Grc3 processed individually, whole rixosome at low resolution

Ipi3 (natural protein)
stoichiometry N [1]: 2 copies
stoichiometry N [2]: 2 copies

polynucleotide kinase Grc3 (enzyme)
stoichiometry N [3]: 2 copies

wild‐type ct PTF‐Las1 (enzyme)
stoichiometry N [4]: 2 copies

Rix1 (natural protein)
stoichiometry N [5]: 2 copies
stoichiometry N [6]: 2 copies
